Results reported in US20120115880A1.

Target: p53 (endogenous wild-type p53 of human retinoblastoma cells and human fetal retinal cells) (human) (UniProt P04637)
Assay: cell-based or functional assay

Chain of p53 (endogenous wild-type p53 of human retinoblastoma cells and human fetal retinal cells) (human) (P04637 whole entry): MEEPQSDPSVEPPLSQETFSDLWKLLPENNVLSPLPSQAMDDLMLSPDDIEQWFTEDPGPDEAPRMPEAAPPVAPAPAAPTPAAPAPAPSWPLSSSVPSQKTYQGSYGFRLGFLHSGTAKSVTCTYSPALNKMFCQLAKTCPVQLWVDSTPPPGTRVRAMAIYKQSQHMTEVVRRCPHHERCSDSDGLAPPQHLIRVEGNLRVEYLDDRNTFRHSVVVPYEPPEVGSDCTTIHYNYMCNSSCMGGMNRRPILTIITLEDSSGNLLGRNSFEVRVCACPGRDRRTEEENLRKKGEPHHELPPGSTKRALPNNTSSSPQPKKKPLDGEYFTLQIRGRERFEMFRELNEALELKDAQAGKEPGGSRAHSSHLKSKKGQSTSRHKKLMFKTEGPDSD

luciferase activity of the p53 reporter construct PG13 in retinoblastoma (Y79) cells: 19 fold
Substance: MDMX (ectopically expressed from the FLAG-tagged MDMX cDNA)
